Data published in PMC3950713.
Numbering of substitutions follows the chain as printed.

How the values were obtained:
Experiment in all cases: MST
HpDprA(5-217)Y11E = biological target: T1, HpDprA(5-217)Y11E (Helicobacter pylori 26695, UniProt O25100 5-217, Y11E)
T1 sequence: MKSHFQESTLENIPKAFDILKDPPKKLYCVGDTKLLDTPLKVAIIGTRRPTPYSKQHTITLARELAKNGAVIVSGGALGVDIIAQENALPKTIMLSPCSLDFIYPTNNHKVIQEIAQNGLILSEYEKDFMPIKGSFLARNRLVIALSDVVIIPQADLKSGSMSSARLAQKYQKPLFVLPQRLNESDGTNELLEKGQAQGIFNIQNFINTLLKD

HpDprA(5-217)R52E/R143E = biological target: T2, HpDprA(5-217)R52E/R143E (Helicobacter pylori 26695, UniProt O25100 5-217, R52E;R143E)
T2 sequence: T1 sequence with E7Y, R48E, R139E

HpDprA(5-217)R52E = biological target: T3, HpDprA(5-217)R52E (Helicobacter pylori 26695, UniProt O25100 5-217, R52E)
T3 sequence: T1 sequence with E7Y, R48E

HpDprA(5-217)Y108E = biological target: T4, HpDprA(5-217)Y108E (Helicobacter pylori 26695, UniProt O25100 5-217, Y108E)
T4 sequence: T1 sequence with E7Y, Y104E

HpDprA(5-217)F140E = biological target: T5, HpDprA(5-217)F140E (Helicobacter pylori 26695, UniProt O25100 5-217, F140E)
T5 sequence: T1 sequence with E7Y, F136E

HpDprA full-length = biological target: T6, HpDprA full-length (Helicobacter pylori 26695, UniProt O25100 1-270)
T6 sequence: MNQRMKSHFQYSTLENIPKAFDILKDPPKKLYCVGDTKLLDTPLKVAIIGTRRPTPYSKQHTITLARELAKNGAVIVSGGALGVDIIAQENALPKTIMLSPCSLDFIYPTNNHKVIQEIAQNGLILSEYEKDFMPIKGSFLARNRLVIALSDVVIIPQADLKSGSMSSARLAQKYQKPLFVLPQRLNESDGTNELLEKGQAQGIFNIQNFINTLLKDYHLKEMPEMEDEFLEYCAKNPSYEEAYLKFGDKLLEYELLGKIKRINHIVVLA

B1: dT35 (ssDNA)
DNA: TTTTTTTTTTTTTTTTTTTTTTTTTTTTTTTTTTT
Kd (HpDprA(5-217)Y11E): 55.9 ± 1.82 nM
binding result (HpDprA(5-217)R52E/R143E): no binding
Kd (HpDprA(5-217)R52E): 9950 ± 367 nM
Kd (HpDprA(5-217)Y108E): 351 ± 6.88 nM
Kd (HpDprA(5-217)F140E): 556 ± 28 nM
Kd (HpDprA full-length): 2.26 ± 0.167 nM
